This note sets out measurements from publication PMC10286367.

First the molecules themselves.
B1: mouse full-length p65-HA [mouse] / glycogen synthase kinase 3β (Gsk3β) [mouse (endogenous in hippocampal tissue)] (parent)
chain 1: MDDLFPLIFPSEPAQASGPYVEIIEQPKQRGMRFRYKCEGRSAGSIPGERSTDTTKTHPTIKINGYTGPGTVRISLVTKDPPHRPHPHELVGKDCRDGYYEADLCPDRSIHSFQNLGIQCVKKRDLEQAISQRIQTNNNPFHVPIEEQRGDYDLNAVRLCFQVTVRDPAGRPLLLTPVLSHPIFDNRAPNTAELKICRVNRNSGSCLGGDEIFLLCDKVQKEDIEVYFTGPGWEARGSFSQADVHRQVAIVFRTPPYADPSLQAPVRVSMQLRRPSDRELSEPMEFQYLPDTDDRHRIEEKRKRTYETFKSIMKKSPFNGPTEPRPPTRRIAVPTRNSTSVPKPAPQPYTFPASLSTINFDEFSPMLLPSGQISNQALALAPSSAPVLAQTMVPSSAMVPLAQPPAPAPVLTPGPPQSLSAPVPKSTQAGEGTLSEALLHLQFDADEDLGALLGNSTDPGVFTDLASVDNSEFQQLLNQGVSMSHSTAEPMLMEYPEAITRLVTGSQRPPDPAPTPLGTSGLPNGLSGDEDFSSIADMDFSALLSQISS
chain 2: MSGRPRTTSFAESCKPVQQPSAFGSMKVSRDKDGSKVTTVVATPGQGPDRPQEVSYTDTKVIGNGSFGVVYQAKLCDSGELVAIKKVLQDKRFKNRELQIMRKLDHCNIVRLRYFFYSSGEKKDEVYLNLVLDYVPETVYRVARHYSRAKQTLPVIYVKLYMYQLFRSLAYIHSFGICHRDIKPQNLLLDPDTAVLKLCDFGSAKQLVRGEPNVSYICSRYYRAPELIFGATDYTSSIDVWSAGCVLAELLLGQPIFPGDSGVDQLVEIIKVLGTPTREQIREMNPNYTEFKFPQIKAHPWTKVFRPRTPPEAIALCSRLLEYTPTARLTPLEACAHSFFDELRDPNVKLPNGRDTPALFNFTTQELSSNPPLATILIPPHARIQAAASPPANATAASDTNAGDRGQTNNAASASASNST

The variants in test [1] derive from B1. Briefly: co-IP with Gsk3β followed by WB, band quantification. The settings on record: with glycogen synthase kinase 3β (Gsk3β) [mouse (endogenous in hippocampal tissue)]; p65-HA variant co-expressed with Ogt-Flag and Gsk3β; n = 3 independent experiments; parent: 1; read off a plot.
Variants of B1 are the subject of test [2]. Briefly: co-IP with HA (p65) followed by WB, band quantification. The conditions noted are these: with glycogen synthase kinase 3β (Gsk3β) [mouse (endogenous in hippocampal tissue)]; p65-HA variant co-expressed with Ogt-Flag and Gsk3β; n = 3 independent experiments; parent: 1; read off a plot.

Consider chain 1 S384A, for which the response (relative protein level (HA / Gsk3β)) in test [1] was found to be 2.4. Also, the response (relative protein level (Gsk3β / HA)) in test [2] is 2.1.
The matching figures for chain 1 S374A: 1.1 and 1.
The matching figures for chain 1 S370A: 1 and 1.1.
The matching figures for chain 1 S396A: 1 and 1.1.
